Publication PMC8196545 (Cell reports, 2021)
Numbering of substitutions follows the chain as printed.

B1: c11395 (antibody, V domains shown)
VH: DVQLLQSNPQVTKPGTTMKISCKTSGFTFSDHFIHWVRLTPARGLEWLGLLDPQGGESVTVFSETFKDRVTMTADTSKNIAYMELHTLTSEDTALYFCATTTLENDDGDYVAAFDFWGQGTPVIVSS
VL: QSVLTQTPSVSAAPGQKVTISCSGSTSNIGSNFVSWYQHSPGAAPRLIIYNNAERPSGIPARFSGSKSGSSATLAITGLQTEDEAEYFCAAWNNGLKSAHYVFGTGTRLSVL
B2: c11450 (antibody, V domains shown)
V domain 1: EVQLAQSGAEMRKPGTTVRISCVISGHTTTDYYVHWVQQAPGKGPQWMGLINFEDANTVYSQSFRGRVSISADISEKTVFLDLTGLTSGDTALYFCTTHTLEKDSGDYVSAFDSWGQGTLLSVSP
V domain 2: QSMLTQPPSISAVPGQKVIISCSGRTSNIGTNFVSWYQQVPGAAPRLLMYDNSNRPSGISDRFSGAKSGSTATLAITALQTEDEADYYCGSWDSGLNPPIFVFGPGTRVFVI
B3: c27071 (antibody, V domains shown)
VH: QFRLEQSGAEVKRPGSSVKVSCKATGGTFHTFVLSWVRQAPGQALEWMGGIIPIFGTAKYAQRFQGRVTFTTDEATNTAYMDLRRLTSDDTAVYFCARSATSDTALVDYGDYEADTFYHNHMDVWGGGTSVTVSS
VL: QSVLTQPPSASATPGQRVTISCSGSSSNIGSNSVTWYHQLPGTAPKVLIYSNDRRPSGVPDRFSGSKSGTSASLAISGLQSDDEGDFYCAAWDDSLKSPVFGGGTKLTVL
B4: c21122 (antibody, V domains shown)
VH: QVQLAQSAAEVKRPGASVKVSCKVSGNTLMEVSIQWVRQTPGKGLEWLGGFAPEKDDWVYAQKFLGRVTMTEDTSTDIAYMHMNSLTSDDTATYYCVGGWQAWGQGTLVTVSS
VL: DIQMTQSPSSLSASVGDRITITCRASQDIINYLAWYQQQAGRAPKSLIYAASSLQSGVPSKFSGSGSGTNFSLTISSLQPEDFATYYCQQYYSYPLTFGGGTKVDLR
B5: c11452 (antibody, V domains shown)
VH: EVKLVESGGTQVQPGGSLRISCVGSGFRFSSYSFNWVRQAPGKGPEWLTYISASPFGRSKVTYAPSVEGRFIVSRDNDANSLYLQMTGLTRDDTAVYHCARAPYYEGNFQYNYAMDVWGLGTTVIVSS
VL: GVVLTQSPGTLSLSPGERATVSCRASQSLSRDSLVWYQQKPGQPPRLLIYGTSNRVPGIPDRFSGGGSGTQFTLTISRLEPEDFAVYYCQNYGLSPLYSFGQGTKLEIK
B6: c10919 (antibody, V domains shown)
VH: B5 VH with T49A, P65Q, I72T, H98Y, Q110H, T123P
VL: B5 VL with L13V, V21I, Y98F
B7: c1141 (antibody, V domains shown)
VH: QVRLHQWGEGLLRPSDTLSLTCSLSGNVFYETFFNWIRQSPGKGLEWIAEVSFAGDWNYNPSLKSRVTTYVDGFKYHASLHMRSMTAADAGVYYCAAGGGSFDVHSWGQGIRVTVSS
VL: EIVLTQTPLSSSVTLGQAASISCTSNHSLQHSNGNTYLSWFQQRPDQPPRLLIRKISNRGSGVPDRFSGSGSGTHFTLTIDRVEPEDVGTYYCVQATQFPWTFGQGTTVDIT
B8: c11058 (antibody, V domains shown)
V domain 1: EVRLDQSGTEMRKPGTRVRLSCKVSGHTTSDFFVHWVQQTPQGGPQWMGLINVEDENVIYADIFQGRISIVADTSKKTVFLDLTDLTFEETALYFCTTHTLQKDTGDYVAAFDSWGRGTLLYVSS
V domain 2: QPVLTQPPSVSAVPGQKVIISCSGRTSNIGTNFVSWYQQFPGAAPKLLIYDDFNRPSGISDRFSASKSDTSATLAITALQPGDEAEYYCGAWDSGLNPAVFVFGSGTRVFVL
B9: c24251 (antibody, V domains shown)
VH: QVQLQESGPGLVKPSETLSLTCTVSGASINSYYWSWIRQTPGKGLEWIGFISNAGTTKYNPSLQSRVTISRDTSKNQVSLHLTSVTAADTAVYHCARDGLPGSNWGYNYAGMDVWGQGTTVTVTS
VL: DIQMTQSPSTLSASVGDRVTITCRTSQPISVWLAWYQQKPGKAPKVLIYRASSLEDGVPSRFSGSGSGTEFTLTISSLQPDDFATYFCQHYNTFSRTFGQGTKVEIK
B10: c7488 (antibody, V domains shown)
VH: QVRLEQWGGGLLKPSETLSLTCAAWDDNFHRYHWTWVRQFPGGRLQWIGQCEPFGAIKSNPSLGGRAGLSLDDSLRRFILTLRSLNVADTGVYFCVRGPERFHQPHFYYQGLGLWGPGSPVIVSS
VL: DVELTQSPLSLSVNPGESVSLFCRSTESLRNANGHDYLDWYVQKPGQSPQILIFLGSGRASGLPDRITASGSGSAFTLRIDKVEADDVGVYYCMQSIQLPRTFGQGTRLEIK
B11: c9674 (antibody, V domains shown)
VH: EVKLVESGGTLVKPGGSLRISCAASGFRFSSYSFNWVRQAPGKGPEWVAYISASPLGRSKVNYAHSVEGRFSVSRDNDAKSLHLQMSGLTRDDTAVYHCARAPWYEGNFNYNYAMDVWGQGTTVIVSS
VL: B5 VL with A19V, T52A, G66D, S77N, A85G, N91S, L94H
B12: c13217 (antibody, V domains shown)
VH: QVQLVESGGGVVQPGKSLRLSCTASGFDVGHFTMHWVRQAPGKGLEWVGLTRTDGNTEEYADSVKGRFAISRDNSKNTLSLQLNNVRAEDTAVYYCAKERVPLTAYAFDYWGQGTLVTVSS
VL: DIQMTQSPSSLSASVGDRVTITCRSSERIRTYVNWYQQKPGQAPQLLIYAASTLQNGVPSRFSGSGSGTVFTLTVNSLQPADFATYSCQQSYSLPWTFGQGTRVEVN
B13: c10833 (antibody, V domains shown)
V domain 1: EVRLDQSGAEMRKPGTSVRLSCTVSGHTTNDFFIHWVKQDPQRGPLWMGLINVEDENVIYAEEFQGRISIVADSSKTTVFLDLSHLTFEDTALYLCTTHTLEKETGDYVAAFDSWGQGTFLSVSS
V domain 2: B8 V domain 2 with P2S, D52T, N54H, A91S
B14: c11465 (antibody, V domains shown)
VH: B5 VH with L48V, T49A, P65H
VL: B5 VL with S30T, N91S, E107D
B15: c5237 (antibody, V domains shown)
VH: QVQLQESAPRLVKTSETLSLTCTVSGSHFYPYFYSWIRQSPGGKLQWIGRMYSTTGSMRTNPSLHTRVGMPLDHSRSQIGLTMSSMTAADTGIYYCVRDIMREFDSVDGSGGIYGGVDVWGRGTTVTVSS
VL: QFVLTQPPSVSGSPGKTVIISCTRSGGTFARNSVRWYLQRPGEIPTTVFFDGNRRASGIPDRFSASIGVSSTSASLTISGLTPEDEADYYCESSDGGHHVVFGGGTKVTVL
B16: c24148 (antibody, V domains shown)
VH: QVEVQESGPGLVKPSETLSLTCSVSGGSITGYYWSWIRQAPGKGLEWIGFISPGGSARYNPSLKSRVTISKDASTNQVSLRLISVTASDTAVYFCVRDGAAGNNWGYNYYGMDVWGQGTTVTVSS
VL: DIQLTQSPSTLSASIGDRVTITCRASQSISVWLAWYQQKPGKAPNLLIYRASTLDSGVPSRFSGSGSGTEFTLTISSLQPDDLGTYYCQHYDTPSRTFGPGTKVEIT
B17: c29323 (antibody, V domains shown)
VH: QVQLQESGPGLVRPSETLSLTCVVSGDSITRNYWSWLRQPPGKTLEWIGFMYDSGTVNYNPSLQSRVSISVDTSNNQFFLRLTSVTAADTAVYYCARHPSRGSDYDSATGDTYYYYYGMDVWGPGTSVVVSS
VL: DIQLTQSPPSLSASVGDRIVISCRATRDIGTSLNWYQQKPGQSPKLLIVAASTLESGVPSRFSAAGSATHFTLTISALQHDDVATYFCQQYLSLPLTFSGGTRVDLR
B18: c1174 (antibody, V domains shown)
VH: B7 VH with E31R, A54T, N58T, A78V, H81Q, R83S, A97S, H105D
VL: B7 VL with A18S, T24R, N26S, H27Q, D46G, G60F, G62E, H75D
B19: c11422 (antibody, V domains shown)
VH: EARLVESGGGRVQPGGSLRLSCEASGFRFSSYSFNWVRQSPGKGLEWLAKISASPFGRSQINYAHSVEGRFIISRDNDGNSLRLQMNDLRGADTGVYYCARAPWQERNLDYNYAMDVWGQGTTVIVSS
VL: ELVLTQSPGTLSLSPGERATVSCRASQSLRRDSLAWYQQKPGHSPRLLIFAASNRVPGIPYRFSGSGSGTQFTLTIDKMEPEDFAVYYCQTYGSSPLYTFGQGTKLDIN
B20: c8395 (antibody, V domains shown)
VH: AVQFLQSGAEVKKPGESLKISCQDRGYGFNDYWIAWVRQMPGKGLEWMGLIYPDDSDTRYSPSFQGQVTILADKSINTAYLQWNSLKASDSAIYYCARLMVVDERSENTFDIWGQGTVVTVFS
VL: SSGLAQSPSLSVSPGQTATVTCSGDPLVNHFASWYQQQPGQSPILVIYQDNQRPSGIPERFSGSKTGNTATLTIGETQAADEADYFCQSWDITTAGMIFGGGTKLTVL
B21: c1134 (antibody, V domains shown)
VH: B7 VH with H81Q, R83S
VL: B7 VL with T7A, D46G
B22: c5275 (antibody, V domains shown)
VH: QGQLVESGGGVVQPGTSLRLSCKASGFSFSNHVMHWVRQAPGKGLEWVAAIWDDGSNQYYRDSVKGRFTISRDNSKNTLFLQMSSLTVQDTAIYFCARRMSAVGTIFAYFNYGMDVWGRGTTVIVSS
VL: EVVLTQSPGTLSLSPGERGTLSCRASQHLSDSSLAWYQQKPGQAPRLLIYAASRRATGIPDRFSGSGSGTDFTLTISRLDPDDFAVYYCQHYGNSPVITFGQGTRLDIK

Biological target: HIV-1 NL4-3 Env on infected cells (HIV-1 group M subtype B, NL4-3 (pNL4-3 …, strain))

| Binder | binding result |
| --- | --- |
| B1 | binds |
| B2 | binds |
| B3 | binds |
| B4 | binds |
| B5 | binds |
| B6 | binds |
| B7 | binds |
| B8 | binds |
| B9 | binds |
| B10 | binds |
| B11 | binds |
| B12 | binds |
| B13 | binds |
| B14 | binds |
| B15 | binds |
| B16 | binds |
| B17 | binds |
| B18 | binds |
| B19 | binds |
| B20 | binds |
| B21 | binds |
| B22 | binds |
